Measurements from US20070071773.

What was measured:
recombinant murine MIP-2 = biological target: T1, recombinant murine MIP-2 (UniProt P10889)
T1 sequence: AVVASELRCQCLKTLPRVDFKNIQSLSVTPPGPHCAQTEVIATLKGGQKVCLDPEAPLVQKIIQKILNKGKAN

[1] = biological target: recombinant human IL-8/CXCL8 (UniProt P10145)
recombinant human IL-8/CXCL8, sequence (P10145 28-99): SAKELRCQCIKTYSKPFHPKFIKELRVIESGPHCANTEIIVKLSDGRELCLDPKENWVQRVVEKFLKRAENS

With “trypsin-like GAS protease (chemokine protease released into the culture supernatant of GAS strain JS95)” the “MIP-2 degradation (dot blot)” value (recombinant murine MIP-2) was “The supernatant of JS95 degraded more than 80% of the recombinant MIP-2 protein” and the “IL-8 degradation (Western blot)” value [1] was “JS95 supernatant effectively degraded IL-8”.
